Numbered stars: 1 amine (or outer) side, 2 acyl side, 3 side chain; on linkers, the order of the positions; unused ones are H or OH. Bridge positions count the residues as written; N and C are the ends. Square brackets hold non-standard residues; d marks the D form. Side chains are listed from the residue outwards. Ends that are not written are not given here. * marks the point of attachment. C20 diacid = O=C(O)CCCCCCCCCCCCCCCCCCC(=O)*; γGlu = O=C(O)[C@H](CCC(=O)[*:2])N[*:1]
T1: human amylin receptor (amylin 3(a) receptor: human calcitonin receptor coexpressed with RAMP-3) (human, UniProt P30988 25-474; O60896 24-148)
T1 sequence (looked up) 1: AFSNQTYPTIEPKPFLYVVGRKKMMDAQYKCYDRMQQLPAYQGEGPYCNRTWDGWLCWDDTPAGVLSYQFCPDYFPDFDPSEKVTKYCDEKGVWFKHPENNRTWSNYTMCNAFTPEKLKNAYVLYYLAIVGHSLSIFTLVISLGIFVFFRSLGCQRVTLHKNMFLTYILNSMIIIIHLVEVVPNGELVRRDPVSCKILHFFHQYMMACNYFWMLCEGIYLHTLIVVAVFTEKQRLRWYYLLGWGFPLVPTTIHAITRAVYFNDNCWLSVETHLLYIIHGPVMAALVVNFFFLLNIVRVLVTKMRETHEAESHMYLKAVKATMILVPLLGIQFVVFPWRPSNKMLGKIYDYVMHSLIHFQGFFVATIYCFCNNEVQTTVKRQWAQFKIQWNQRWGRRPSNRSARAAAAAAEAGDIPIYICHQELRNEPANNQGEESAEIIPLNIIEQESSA
T1 sequence (looked up) 2: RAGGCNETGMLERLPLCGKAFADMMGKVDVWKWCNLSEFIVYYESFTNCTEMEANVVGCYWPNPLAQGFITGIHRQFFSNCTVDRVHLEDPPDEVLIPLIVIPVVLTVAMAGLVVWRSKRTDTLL

T2: human calcitonin receptor (human, UniProt P30988 25-474)
T2 sequence (looked up): T1 sequence (looked up) 1

B1: N^ε1-[(4S)-4-carboxy-4-(19-carboxynonadecanoylamino)butanoyl]-[His14,Arg17,Pro21,Pro27,His34]-h-amylin (peptide)
peptide: K([γGlu-C20 diacid])CNTATCATQRLAHFLRHSSPNFGAIPSSTNVGHNTY-NH2
modifications: disulfide 2-7; N-terminus assumed
SMILES: CC[C@H](C)[C@H](NC(=O)[C@H](C)NC(=O)CNC(=O)[C@H](Cc1ccccc1)NC(=O)[C@H](CC(N)=O)NC(=O)[C@@H]1CCCN1C(=O)[C@H](CO)NC(=O)[C@H](CO)NC(=O)[C@H](Cc1c[nH]cn1)NC(=O)[C@H](CCCNC(=N)N)NC(=O)[C@H](CC(C)C)NC(=O)[C@H](Cc1ccccc1)NC(=O)[C@H](Cc1c[nH]cn1)NC(=O)[C@H](C)NC(=O)[C@H](CC(C)C)NC(=O)[C@H](CCCNC(=N)N)NC(=O)[C@H](CCC(N)=O)NC(=O)[C@@H](NC(=O)[C@H](C)NC(=O)[C@@H]1CSSC[C@H](NC(=O)[C@@H](N)CCCCNC(=O)CC[C@H](NC(=O)CCCCCCCCCCCCCCCCCCC(=O)O)C(=O)O)C(=O)N[C@@H](CC(N)=O)C(=O)N[C@@H]([C@@H](C)O)C(=O)N[C@@H](C)C(=O)N[C@@H]([C@@H](C)O)C(=O)N1)[C@@H](C)O)C(=O)N1CCC[C@H]1C(=O)N[C@@H](CO)C(=O)N[C@@H](CO)C(=O)N[C@H](C(=O)N[C@@H](CC(N)=O)C(=O)N[C@H](C(=O)NCC(=O)N[C@@H](Cc1c[nH]cn1)C(=O)N[C@@H](CC(N)=O)C(=O)N[C@H](C(=O)N[C@@H](Cc1ccc(O)cc1)C(N)=O)[C@@H](C)O)C(C)C)[C@@H](C)O
notes: also called compound 81
B2: N^ε1-[(4S)-4-carboxy-4-[[(4S)-4-carboxy-4-(19-carboxynonadecanoylamino)butanoyl]amino]butanoyl]-[Glu14,Arg17,Pro21,Pro27,Arg35]-h-amylin (peptide)
peptide: K([γGlu-γGlu-C20 diacid])CNTATCATQRLAEFLRHSSPNFGAIPSSTNVGSRTY-NH2
modifications: disulfide 2-7; N-terminus assumed
SMILES: CC[C@H](C)[C@H](NC(=O)[C@H](C)NC(=O)CNC(=O)[C@H](Cc1ccccc1)NC(=O)[C@H](CC(N)=O)NC(=O)[C@@H]1CCCN1C(=O)[C@H](CO)NC(=O)[C@H](CO)NC(=O)[C@H](Cc1c[nH]cn1)NC(=O)[C@H](CCCNC(=N)N)NC(=O)[C@H](CC(C)C)NC(=O)[C@H](Cc1ccccc1)NC(=O)[C@H](CCC(=O)O)NC(=O)[C@H](C)NC(=O)[C@H](CC(C)C)NC(=O)[C@H](CCCNC(=N)N)NC(=O)[C@H](CCC(N)=O)NC(=O)[C@@H](NC(=O)[C@H](C)NC(=O)[C@@H]1CSSC[C@H](NC(=O)[C@@H](N)CCCCNC(=O)CC[C@H](NC(=O)CC[C@H](NC(=O)CCCCCCCCCCCCCCCCCCC(=O)O)C(=O)O)C(=O)O)C(=O)N[C@@H](CC(N)=O)C(=O)N[C@@H]([C@@H](C)O)C(=O)N[C@@H](C)C(=O)N[C@@H]([C@@H](C)O)C(=O)N1)[C@@H](C)O)C(=O)N1CCC[C@H]1C(=O)N[C@@H](CO)C(=O)N[C@@H](CO)C(=O)N[C@H](C(=O)N[C@@H](CC(N)=O)C(=O)N[C@H](C(=O)NCC(=O)N[C@@H](CO)C(=O)N[C@@H](CCCNC(=N)N)C(=O)N[C@H](C(=O)N[C@@H](Cc1ccc(O)cc1)C(N)=O)[C@@H](C)O)C(C)C)[C@@H](C)O
notes: also called compound 89
B3: N^ε1-[(4S)-4-carboxy-4-[[(4S)-4-carboxy-4-(19-carboxynonadecanoylamino)butanoyl]amino]butanoyl]-[Glu14,Arg17,Pro21,Pro27,His34,Glu35]-h-amylin (peptide)
peptide: K([γGlu-γGlu-C20 diacid])CNTATCATQRLAEFLRHSSPNFGAIPSSTNVGHETY-NH2
modifications: disulfide 2-7; N-terminus assumed
SMILES: CC[C@H](C)[C@H](NC(=O)[C@H](C)NC(=O)CNC(=O)[C@H](Cc1ccccc1)NC(=O)[C@H](CC(N)=O)NC(=O)[C@@H]1CCCN1C(=O)[C@H](CO)NC(=O)[C@H](CO)NC(=O)[C@H](Cc1c[nH]cn1)NC(=O)[C@H](CCCNC(=N)N)NC(=O)[C@H](CC(C)C)NC(=O)[C@H](Cc1ccccc1)NC(=O)[C@H](CCC(=O)O)NC(=O)[C@H](C)NC(=O)[C@H](CC(C)C)NC(=O)[C@H](CCCNC(=N)N)NC(=O)[C@H](CCC(N)=O)NC(=O)[C@@H](NC(=O)[C@H](C)NC(=O)[C@@H]1CSSC[C@H](NC(=O)[C@@H](N)CCCCNC(=O)CC[C@H](NC(=O)CC[C@H](NC(=O)CCCCCCCCCCCCCCCCCCC(=O)O)C(=O)O)C(=O)O)C(=O)N[C@@H](CC(N)=O)C(=O)N[C@@H]([C@@H](C)O)C(=O)N[C@@H](C)C(=O)N[C@@H]([C@@H](C)O)C(=O)N1)[C@@H](C)O)C(=O)N1CCC[C@H]1C(=O)N[C@@H](CO)C(=O)N[C@@H](CO)C(=O)N[C@H](C(=O)N[C@@H](CC(N)=O)C(=O)N[C@H](C(=O)NCC(=O)N[C@@H](Cc1c[nH]cn1)C(=O)N[C@@H](CCC(=O)O)C(=O)N[C@H](C(=O)N[C@@H](Cc1ccc(O)cc1)C(N)=O)[C@@H](C)O)C(C)C)[C@@H](C)O
B4: N^ε1-[(4S)-4-carboxy-4-[[(4S)-4-carboxy-4-(19-carboxynonadecanoylamino)butanoyl]amino]butanoyl]-[D-Asp14,Arg17,Pro21,Pro27,Arg35]-h-amylin (peptide)
peptide: K([γGlu-γGlu-C20 diacid])CNTATCATQRLA[dD]FLRHSSPNFGAIPSSTNVGSRTY-NH2
modifications: disulfide 2-7; N-terminus assumed
SMILES: CC[C@H](C)[C@H](NC(=O)[C@H](C)NC(=O)CNC(=O)[C@H](Cc1ccccc1)NC(=O)[C@H](CC(N)=O)NC(=O)[C@@H]1CCCN1C(=O)[C@H](CO)NC(=O)[C@H](CO)NC(=O)[C@H](Cc1c[nH]cn1)NC(=O)[C@H](CCCNC(=N)N)NC(=O)[C@H](CC(C)C)NC(=O)[C@H](Cc1ccccc1)NC(=O)[C@@H](CC(=O)O)NC(=O)[C@H](C)NC(=O)[C@H](CC(C)C)NC(=O)[C@H](CCCNC(=N)N)NC(=O)[C@H](CCC(N)=O)NC(=O)[C@@H](NC(=O)[C@H](C)NC(=O)[C@@H]1CSSC[C@H](NC(=O)[C@@H](N)CCCCNC(=O)CC[C@H](NC(=O)CC[C@H](NC(=O)CCCCCCCCCCCCCCCCCCC(=O)O)C(=O)O)C(=O)O)C(=O)N[C@@H](CC(N)=O)C(=O)N[C@@H]([C@@H](C)O)C(=O)N[C@@H](C)C(=O)N[C@@H]([C@@H](C)O)C(=O)N1)[C@@H](C)O)C(=O)N1CCC[C@H]1C(=O)N[C@@H](CO)C(=O)N[C@@H](CO)C(=O)N[C@H](C(=O)N[C@@H](CC(N)=O)C(=O)N[C@H](C(=O)NCC(=O)N[C@@H](CO)C(=O)N[C@@H](CCCNC(=N)N)C(=O)N[C@H](C(=O)N[C@@H](Cc1ccc(O)cc1)C(N)=O)[C@@H](C)O)C(C)C)[C@@H](C)O
notes: Residue 14 is D-aspartic acid (printed 14d)
B5: N^ε1-[(4S)-4-carboxy-4-[[(4S)-4-carboxy-4-(19-carboxynonadecanoylamino)butanoyl]amino]butanoyl]-[Arg17,Pro21,Pro27,Pro31,Pro34,Arg35]-h-amylin (peptide)
peptide: K([γGlu-γGlu-C20 diacid])CNTATCATQRLANFLRHSSPNFGAIPSSTPVGPRTY-NH2
modifications: disulfide 2-7; N-terminus assumed
SMILES: CC[C@H](C)[C@H](NC(=O)[C@H](C)NC(=O)CNC(=O)[C@H](Cc1ccccc1)NC(=O)[C@H](CC(N)=O)NC(=O)[C@@H]1CCCN1C(=O)[C@H](CO)NC(=O)[C@H](CO)NC(=O)[C@H](Cc1c[nH]cn1)NC(=O)[C@H](CCCNC(=N)N)NC(=O)[C@H](CC(C)C)NC(=O)[C@H](Cc1ccccc1)NC(=O)[C@H](CC(N)=O)NC(=O)[C@H](C)NC(=O)[C@H](CC(C)C)NC(=O)[C@H](CCCNC(=N)N)NC(=O)[C@H](CCC(N)=O)NC(=O)[C@@H](NC(=O)[C@H](C)NC(=O)[C@@H]1CSSC[C@H](NC(=O)[C@@H](N)CCCCNC(=O)CC[C@H](NC(=O)CC[C@H](NC(=O)CCCCCCCCCCCCCCCCCCC(=O)O)C(=O)O)C(=O)O)C(=O)N[C@@H](CC(N)=O)C(=O)N[C@@H]([C@@H](C)O)C(=O)N[C@@H](C)C(=O)N[C@@H]([C@@H](C)O)C(=O)N1)[C@@H](C)O)C(=O)N1CCC[C@H]1C(=O)N[C@@H](CO)C(=O)N[C@@H](CO)C(=O)N[C@H](C(=O)N1CCC[C@H]1C(=O)N[C@H](C(=O)NCC(=O)N1CCC[C@H]1C(=O)N[C@@H](CCCNC(=N)N)C(=O)N[C@H](C(=O)N[C@@H](Cc1ccc(O)cc1)C(N)=O)[C@@H](C)O)C(C)C)[C@@H](C)O
B6: N^ε1-[(4S)-4-carboxy-4-[[(4S)-4-carboxy-4-(19-carboxynonadecanoylamino)butanoyl]amino]butanoyl]-[Asp14,Arg17,Pro21,Pro27,Pro34,Arg35]-h-amylin (peptide)
peptide: K([γGlu-γGlu-C20 diacid])CNTATCATQRLADFLRHSSPNFGAIPSSTNVGPRTY-NH2
modifications: disulfide 2-7; N-terminus assumed
SMILES: CC[C@H](C)[C@H](NC(=O)[C@H](C)NC(=O)CNC(=O)[C@H](Cc1ccccc1)NC(=O)[C@H](CC(N)=O)NC(=O)[C@@H]1CCCN1C(=O)[C@H](CO)NC(=O)[C@H](CO)NC(=O)[C@H](Cc1c[nH]cn1)NC(=O)[C@H](CCCNC(=N)N)NC(=O)[C@H](CC(C)C)NC(=O)[C@H](Cc1ccccc1)NC(=O)[C@H](CC(=O)O)NC(=O)[C@H](C)NC(=O)[C@H](CC(C)C)NC(=O)[C@H](CCCNC(=N)N)NC(=O)[C@H](CCC(N)=O)NC(=O)[C@@H](NC(=O)[C@H](C)NC(=O)[C@@H]1CSSC[C@H](NC(=O)[C@@H](N)CCCCNC(=O)CC[C@H](NC(=O)CC[C@H](NC(=O)CCCCCCCCCCCCCCCCCCC(=O)O)C(=O)O)C(=O)O)C(=O)N[C@@H](CC(N)=O)C(=O)N[C@@H]([C@@H](C)O)C(=O)N[C@@H](C)C(=O)N[C@@H]([C@@H](C)O)C(=O)N1)[C@@H](C)O)C(=O)N1CCC[C@H]1C(=O)N[C@@H](CO)C(=O)N[C@@H](CO)C(=O)N[C@H](C(=O)N[C@@H](CC(N)=O)C(=O)N[C@H](C(=O)NCC(=O)N1CCC[C@H]1C(=O)N[C@@H](CCCNC(=N)N)C(=O)N[C@H](C(=O)N[C@@H](Cc1ccc(O)cc1)C(N)=O)[C@@H](C)O)C(C)C)[C@@H](C)O
notes: also called compound 130

Each binder was assayed against T1, human amylin receptor (amylin 3(a) …) (assay: cell-based or functional assay).

hAmylin-R funct. EC50 (pM)	Binder
130	B1
404	B2
445	B3
383	B4
333	B5
162	B6

The binders below were run against T2, human calcitonin receptor (assay: cell-based or functional assay).

Ratio hCT/hAmylin funct.	hCTR funct. EC50 (pM)	Binder
13.3	1730	B1
	11200	B2
15.8	7050	B3
	100000	B4
26	8660	B5
44.9	7280	B6
